The text below walks through data of the Human Domainome abundance scans (Beltran et al. 2025).

± gives the uncertainty stated by the source.

B1: Glucocorticoid receptor, residues 419 to 494; numbered along this chain, P04150 (parent)
chain: KLCLVCSDEASGCHYGVLTCGSCKVFFKRAVEGQHNYLCAGRNDCIIDKIRRKNCPACRYRKCLQAGMNLEARKTK

The variants in this series derive from B1. The experiment in a line: abundance fitness (aPCA) (normalised: wild type 0, dead -1); higher = more abundant; growth selection in yeast, the domain comes from the species named. As to conditions: Homo sapiens.
For KLCLVCSDEASGCHYGVLTCGSCKVFFKRAVEGQHNYLCAGRNDCIIDKIRRKRCPACRYRKCLQAGMNLEARKTK [N54R], the abundance fitness was -0.053 ± 0.032.
With KLCLVCSDMASGCHYGVLTCGSCKVFFKRAVEGQHNYLCAGRNDCIIDKIRRKNCPACRYRKCLQAGMNLEARKTK [E9M], the abundance fitness was determined as 0.042 ± 0.042.
Turning to KLCLVCSDIASGCHYGVLTCGSCKVFFKRAVEGQHNYLCAGRNDCIIDKIRRKNCPACRYRKCLQAGMNLEARKTK [E9I], the abundance fitness was -0.038 ± 0.065.
Regarding KLCLVCSDKASGCHYGVLTCGSCKVFFKRAVEGQHNYLCAGRNDCIIDKIRRKNCPACRYRKCLQAGMNLEARKTK [E9K], the abundance fitness turned out to be 0.105 ± 0.057.
On to KLCLVCSDEASGCHYGVLTCGSCKVFFKRAVEGQHNYLCAGRNDCIIDKIRRKNCPACRYRKCLQAGMNLEAIKTK [R73I], for which the abundance fitness was -0.066 ± 0.07.
For KLCLVCSDEASGCHYGVLTCGSCKVFFKHAVEGQHNYLCAGRNDCIIDKIRRKNCPACRYRKCLQAGMNLEARKTK [R29H] the value was -0.071 ± 0.075; for KLCLVCSDEASGCHYGVLTCGSCKVFFKKAVEGQHNYLCAGRNDCIIDKIRRKNCPACRYRKCLQAGMNLEARKTK [R29K], 0.03 ± 0.059.
In the case of KLCLVCSDEASGCHYGVLTCGSCKVFFKMAVEGQHNYLCAGRNDCIIDKIRRKNCPACRYRKCLQAGMNLEARKTK [R29M], the abundance fitness is -0.113 ± 0.046.
With KLCLVCSDEASGCHYGVLTCGSCKVFFKFAVEGQHNYLCAGRNDCIIDKIRRKNCPACRYRKCLQAGMNLEARKTK [R29F] the figure was -0.152 ± 0.076.
With KLCLVCSDEASGCHYGVWTCGSCKVFFKRAVEGQHNYLCAGRNDCIIDKIRRKNCPACRYRKCLQAGMNLEARKTK [L18W] the figure was -0.01 ± 0.047; with KLCLVCSDEASGCHYGVPTCGSCKVFFKRAVEGQHNYLCAGRNDCIIDKIRRKNCPACRYRKCLQAGMNLEARKTK [L18P], -0.004 ± 0.055.
With KLCLVCSDEASGCHYGVGTCGSCKVFFKRAVEGQHNYLCAGRNDCIIDKIRRKNCPACRYRKCLQAGMNLEARKTK [L18G] the figure was -0.191 ± 0.042.
Take KLCLVCSDEASGCHYGVLTCGSCKVFFKRAVEGQHNYLCAGRNDCIIDKIRRKNCPACRYRKCLKAGMNLEARKTK [Q65K]: the abundance fitness was -0.052 ± 0.045.
As for KLCLVCSDEASGCHYGVLTCGSCKVFFKRAVEGQHNYLYAGRNDCIIDKIRRKNCPACRYRKCLQAGMNLEARKTK [C39Y], the abundance fitness was -0.951 ± 0.34.
As for KLCLVCSDEASGCHYGVLTCGSCKVFFKRAVEGQHNYLKAGRNDCIIDKIRRKNCPACRYRKCLQAGMNLEARKTK [C39K], the abundance fitness was -0.787 ± 0.13.
For the variant KLCLVCSDEASGCHYGVLTCGSCKVFFKRAVEGQHNYLCAGRNDCIIDKIRRKNCPACRYRKCLQAGMNLEYRKTK [A72Y], the abundance fitness is 0.011 ± 0.061.
As for KLCLVCSDEASGCHYGVLTCGSCKVFFKRAVEGQHNYLCAGRNDCIIDKIRRKNCPACRYRKCLQAGMNLEQRKTK [A72Q], the abundance fitness turned out to be 0.008 ± 0.043.
Regarding KLCLVCSDEASGCHYGVLTCGSCKVFFKRAVEGQHNYLCAGRNDCIIDKIRRKNCPACRYRKCLQAGMNLELRKTK [A72L], the abundance fitness is -0.015 ± 0.036.
For KLCLVCSDEASGCHYGVLTCGSCKVFFKRAVEGQHNYLCAGRNDCIIDKIRRKNCPACRYRKCLQAGMNLEKRKTK [A72K] the value was 0.049 ± 0.045; for KLCLVCSDEASGCHYGVLTCGSCKDFFKRAVEGQHNYLCAGRNDCIIDKIRRKNCPACRYRKCLQAGMNLEARKTK [V25D], 0.017 ± 0.086.
For KLCLVCSDEASGCHYGVLCCGSCKVFFKRAVEGQHNYLCAGRNDCIIDKIRRKNCPACRYRKCLQAGMNLEARKTK [T19C] the value was 0.061 ± 0.053.
For KLCLVCSDEASGCHYGVLVCGSCKVFFKRAVEGQHNYLCAGRNDCIIDKIRRKNCPACRYRKCLQAGMNLEARKTK [T19V] the value was -0.011 ± 0.035.
Turning to KLCLVCSDEASGCHYGVLDCGSCKVFFKRAVEGQHNYLCAGRNDCIIDKIRRKNCPACRYRKCLQAGMNLEARKTK [T19D], the abundance fitness is -0.909 ± 0.31.
For KLCLVCSDEASGCHYGVLTCGSCKVFFKRAVEGMHNYLCAGRNDCIIDKIRRKNCPACRYRKCLQAGMNLEARKTK [Q34M] the value was 0.017 ± 0.043; for KLCLVCSDEASGCHYGVLTCGSCRVFFKRAVEGQHNYLCAGRNDCIIDKIRRKNCPACRYRKCLQAGMNLEARKTK [K24R], -0.105 ± 0.054.
As to KLCLVCSDEASGCHYGVLTCGSCKVFFLRAVEGQHNYLCAGRNDCIIDKIRRKNCPACRYRKCLQAGMNLEARKTK [K28L], the abundance fitness is -0.022 ± 0.036.
With KLCLVCSDEASGCHYGVLTCGSCKVFFKRAVEGQHNYTCAGRNDCIIDKIRRKNCPACRYRKCLQAGMNLEARKTK [L38T] the figure was -0.035 ± 0.049; with KLCLVCSDEASGCHYGVLTCGSCKVFFKRAVEGQHNYVCAGRNDCIIDKIRRKNCPACRYRKCLQAGMNLEARKTK [L38V], 0.058 ± 0.031; with KLCLVCSDEASGCHYGVLTHGSCKVFFKRAVEGQHNYLCAGRNDCIIDKIRRKNCPACRYRKCLQAGMNLEARKTK [C20H], -0.918 ± 0.31.
On to KLCLVCSDEASGCHYGVLTCGSCKVFFKRAVEGQHNYLCAGRNDCIIDKIRRKNCPACHYRKCLQAGMNLEARKTK [R59H], for which the abundance fitness worked out at 0.014 ± 0.09.
On to KLCLVCSDEASGCHYGVLTCGSCKVFFKRAVEGQHNYLCAGRNDCIIDKIRRKNCPACLYRKCLQAGMNLEARKTK [R59L], for which the abundance fitness was -0.017 ± 0.035.
With KLCLVCSDEASGCHYGVLTCGSCKVFFKRAVEGQHNYLCAGRNDCIIDKIRRKNCPACRYRKALQAGMNLEARKTK [C63A] the figure was -0.28 ± 0.039.
With KLCLVKSDEASGCHYGVLTCGSCKVFFKRAVEGQHNYLCAGRNDCIIDKIRRKNCPACRYRKCLQAGMNLEARKTK [C6K] the figure was -1.01 ± 0.22.
With KLCLVLSDEASGCHYGVLTCGSCKVFFKRAVEGQHNYLCAGRNDCIIDKIRRKNCPACRYRKCLQAGMNLEARKTK [C6L] the figure was -0.992 ± 0.12; with KLCLVCSDEASGCHYGVLTCGSCKVFFKRAVEGQHNYLCAGRNDCIIDKIRRKNCPACRYRKCPQAGMNLEARKTK [L64P], -0.682 ± 0.13.
Take KLCLVCSDEASCCHYGVLTCGSCKVFFKRAVEGQHNYLCAGRNDCIIDKIRRKNCPACRYRKCLQAGMNLEARKTK [G12C]: the abundance fitness was -0.194 ± 0.078.
